Target: Shigella flexneri LptDE complex (SfLptDE), His6 tag on LptE (Shigella flexneri)
Test: SEC

receptor binding protein (RBP) of the small siphophage Oekolampad (bas018) (natural protein)
percent RBP (Oeko) binding (complex formation after 48 h, band densitometry against LptE): 15 to 35%
